According to US20240279278A1, “NMU RECEPTOR 2 AGONISTS” (Boehringer Ingelheim International GmbH, priority 2023, published 2024):

T1: human neuromedin U receptor 1 (human, UniProt Q9HB89 24-426)
T1 sequence (looked up): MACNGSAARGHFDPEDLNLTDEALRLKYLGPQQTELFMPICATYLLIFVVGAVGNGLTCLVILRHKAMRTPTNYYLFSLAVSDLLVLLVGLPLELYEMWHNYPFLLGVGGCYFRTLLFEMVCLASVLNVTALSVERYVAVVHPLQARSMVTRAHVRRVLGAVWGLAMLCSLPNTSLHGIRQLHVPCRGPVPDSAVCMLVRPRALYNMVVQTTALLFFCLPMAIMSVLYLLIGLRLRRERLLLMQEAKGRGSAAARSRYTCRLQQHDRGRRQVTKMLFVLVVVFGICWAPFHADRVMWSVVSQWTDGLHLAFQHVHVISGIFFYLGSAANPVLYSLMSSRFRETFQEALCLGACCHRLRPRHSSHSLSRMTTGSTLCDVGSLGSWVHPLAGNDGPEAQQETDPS


Target: T1, human neuromedin U receptor 1
Assay: cell-based or functional assay

| Binder | EC50 (hNMUR1) buffer |
| --- | --- |
| EEEXXXXXXXXXXXXXYFLXXARG (HELM PEPTIDE1{[O=C(O)CCCCCCCCCCCCCCCCC(=O)[*:2]].[gGlu].[gGlu].[gGlu].[Sar].[Sar].[Sar].[Sar].[Sar].[Sar].[Sar].[Sar].[Sar].[Sar].[Sar].[Sar].[O=C(CN1CCN(CCN[*:1])CC1)[*:2]].Y.F.[meL].[Nle].[Dab].[meA].R.G.[am]}$$$$V2.0; SMILES CCCC[C@H](NC(=O)[C@H](CC(C)C)N(C)C(=O)[C@H](Cc1ccccc1)NC(=O)[C@H](Cc1ccc(O)cc1)NC(=O)CN1CCN(CCNC(=O)CN(C)C(=O)CN(C)C(=O)CN(C)C(=O)CN(C)C(=O)CN(C)C(=O)CN(C)C(=O)CN(C)C(=O)CN(C)C(=O)CN(C)C(=O)CN(C)C(=O)CN(C)C(=O)CN(C)C(=O)CC[C@H](NC(=O)CC[C@H](NC(=O)CC[C@H](NC(=O)CCCCCCCCCCCCCCCCC(=O)O)C(=O)O)C(=O)O)C(=O)O)CC1)C(=O)N[C@@H](CCN)C(=O)N(C)[C@@H](C)C(=O)N[C@@H](CCCNC(=N)N)C(=O)NCC(N)=O) [C18DA-gGlu3-Sar12-AEPipAc-Tyr-Phe-NMeLeu-Nle-Dbu-NMeAla-Arg-Gly-NH2] | > 1000 nM |
| EEEXXXXXXXXXXYFLXRPRG (HELM PEPTIDE1{[O=C(O)CCCCCCCCCCCCCCCCCCC(=O)[*:2]].[gGlu].[gGlu].[gGlu].[Sar].[Sar].[Sar].[Sar].[Sar].[Sar].[Sar].[Sar].[Sar].[O=C(CN1CCN(CCN[*:1])CC1)[*:2]].Y.F.[meL].[Nle].R.P.R.G.[am]}$$$$V2.0; SMILES CCCC[C@H](NC(=O)[C@H](CC(C)C)N(C)C(=O)[C@H](Cc1ccccc1)NC(=O)[C@H](Cc1ccc(O)cc1)NC(=O)CN1CCN(CCNC(=O)CN(C)C(=O)CN(C)C(=O)CN(C)C(=O)CN(C)C(=O)CN(C)C(=O)CN(C)C(=O)CN(C)C(=O)CN(C)C(=O)CN(C)C(=O)CC[C@H](NC(=O)CC[C@H](NC(=O)CC[C@H](NC(=O)CCCCCCCCCCCCCCCCCCC(=O)O)C(=O)O)C(=O)O)C(=O)O)CC1)C(=O)N[C@@H](CCCNC(=N)N)C(=O)N1CCC[C@H]1C(=O)N[C@@H](CCCNC(=N)N)C(=O)NCC(N)=O) [C20DA-gGlu3-Sar9-AEPipAc-Tyr-Phe-NMeLeu-Nle-Arg-Pro-Arg-Gly-NH2] | 130 nM |
| EEEXXXXXXXXXXXXXXXXYFLXRPRG (HELM PEPTIDE1{[O=C(O)CCCCCCCCCCCCCCCCC(=O)[*:2]].[gGlu].[gGlu].[gGlu].[Sar].[Sar].[Sar].[Sar].[Sar].[Sar].[Sar].[Sar].[Sar].[Sar].[Sar].[Sar].[Sar].[Sar].[Sar].[O=C(CN1CCN(CCN[*:1])CC1)[*:2]].Y.F.[meL].[Nle].R.P.R.G.[am]}$$$$V2.0; SMILES CCCC[C@H](NC(=O)[C@H](CC(C)C)N(C)C(=O)[C@H](Cc1ccccc1)NC(=O)[C@H](Cc1ccc(O)cc1)NC(=O)CN1CCN(CCNC(=O)CN(C)C(=O)CN(C)C(=O)CN(C)C(=O)CN(C)C(=O)CN(C)C(=O)CN(C)C(=O)CN(C)C(=O)CN(C)C(=O)CN(C)C(=O)CN(C)C(=O)CN(C)C(=O)CN(C)C(=O)CN(C)C(=O)CN(C)C(=O)CN(C)C(=O)CC[C@H](NC(=O)CC[C@H](NC(=O)CC[C@H](NC(=O)CCCCCCCCCCCCCCCCC(=O)O)C(=O)O)C(=O)O)C(=O)O)CC1)C(=O)N[C@@H](CCCNC(=N)N)C(=O)N1CCC[C@H]1C(=O)N[C@@H](CCCNC(=N)N)C(=O)NCC(N)=O) [C18DA-gGlu3-Sar15-AEPipAc-Tyr-Phe-NMeLeu-Nle-Arg-Pro-Arg-Gly-NH2] | 250 nM |

Now from value to binder:

| EC50 (hNMUR1) buffer | Binder |
| --- | --- |
| 890 nM | EEEXXXXXXXXXXXXXXXXYFLXXPRG (HELM PEPTIDE1{[O=C(O)CCCCCCCCCCCCCCCCCCC(=O)[*:2]].[gGlu].[gGlu].[gGlu].[Sar].[Sar].[Sar].[Sar].[Sar].[Sar].[Sar].[Sar].[Sar].[Sar].[Sar].[Sar].[Sar].[Sar].[Sar].[O=C(CN1CCN(CCN[*:1])CC1)[*:2]].Y.F.[meL].[Nle].[Orn].P.R.G.[am]}$$$$V2.0; SMILES CCCC[C@H](NC(=O)[C@H](CC(C)C)N(C)C(=O)[C@H](Cc1ccccc1)NC(=O)[C@H](Cc1ccc(O)cc1)NC(=O)CN1CCN(CCNC(=O)CN(C)C(=O)CN(C)C(=O)CN(C)C(=O)CN(C)C(=O)CN(C)C(=O)CN(C)C(=O)CN(C)C(=O)CN(C)C(=O)CN(C)C(=O)CN(C)C(=O)CN(C)C(=O)CN(C)C(=O)CN(C)C(=O)CN(C)C(=O)CN(C)C(=O)CC[C@H](NC(=O)CC[C@H](NC(=O)CC[C@H](NC(=O)CCCCCCCCCCCCCCCCCCC(=O)O)C(=O)O)C(=O)O)C(=O)O)CC1)C(=O)N[C@@H](CCCN)C(=O)N1CCC[C@H]1C(=O)N[C@@H](CCCNC(=N)N)C(=O)NCC(N)=O) [C20DA-gGlu3-Sar15-AEPipAc-Tyr-Phe-NMeLeu-Nle-Orn-Pro-Arg-Gly-NH2] |
| 120 nM | EEEXXXXXXXXXXXXXYFLXRPRG (HELM PEPTIDE1{[O=C(O)CCCCCCCCCCCCCCCCCCC(=O)[*:2]].[gGlu].[gGlu].[gGlu].[Sar].[Sar].[Sar].[Sar].[Sar].[Sar].[Sar].[Sar].[Sar].[Sar].[Sar].[Sar].[O=C(CN1CCN(CCN[*:1])CC1)[*:2]].Y.F.[meL].[Nle].R.P.R.G.[am]}$$$$V2.0; SMILES CCCC[C@H](NC(=O)[C@H](CC(C)C)N(C)C(=O)[C@H](Cc1ccccc1)NC(=O)[C@H](Cc1ccc(O)cc1)NC(=O)CN1CCN(CCNC(=O)CN(C)C(=O)CN(C)C(=O)CN(C)C(=O)CN(C)C(=O)CN(C)C(=O)CN(C)C(=O)CN(C)C(=O)CN(C)C(=O)CN(C)C(=O)CN(C)C(=O)CN(C)C(=O)CN(C)C(=O)CC[C@H](NC(=O)CC[C@H](NC(=O)CC[C@H](NC(=O)CCCCCCCCCCCCCCCCCCC(=O)O)C(=O)O)C(=O)O)C(=O)O)CC1)C(=O)N[C@@H](CCCNC(=N)N)C(=O)N1CCC[C@H]1C(=O)N[C@@H](CCCNC(=N)N)C(=O)NCC(N)=O) [C20DA-gGlu3-Sar12-AEPipAc-Tyr-Phe-NMeLeu-Nle-Arg-Pro-Arg-Gly-NH2] |
| > 1000 nM | EEEXXXXXXXXXXXXXXXXYFLXXARG (HELM PEPTIDE1{[O=C(O)CCCCCCCCCCCCCCCCCCC(=O)[*:2]].[gGlu].[gGlu].[gGlu].[Sar].[Sar].[Sar].[Sar].[Sar].[Sar].[Sar].[Sar].[Sar].[Sar].[Sar].[Sar].[Sar].[Sar].[Sar].[O=C(CN1CCN(CCN[*:1])CC1)[*:2]].Y.F.[meL].[Nle].[Dab].[meA].R.G.[am]}$$$$V2.0; SMILES CCCC[C@H](NC(=O)[C@H](CC(C)C)N(C)C(=O)[C@H](Cc1ccccc1)NC(=O)[C@H](Cc1ccc(O)cc1)NC(=O)CN1CCN(CCNC(=O)CN(C)C(=O)CN(C)C(=O)CN(C)C(=O)CN(C)C(=O)CN(C)C(=O)CN(C)C(=O)CN(C)C(=O)CN(C)C(=O)CN(C)C(=O)CN(C)C(=O)CN(C)C(=O)CN(C)C(=O)CN(C)C(=O)CN(C)C(=O)CN(C)C(=O)CC[C@H](NC(=O)CC[C@H](NC(=O)CC[C@H](NC(=O)CCCCCCCCCCCCCCCCCCC(=O)O)C(=O)O)C(=O)O)C(=O)O)CC1)C(=O)N[C@@H](CCN)C(=O)N(C)[C@@H](C)C(=O)N[C@@H](CCCNC(=N)N)C(=O)NCC(N)=O) [C20DA-gGlu3-Sar15-AEPipAc-Tyr-Phe-NMeLeu-Nle-Dbu-NMeAla-Arg-Gly-NH2] |
| 1500 nM | EEEXXXXXXXXXXXXXXXXYFLXXPRG (HELM PEPTIDE1{[O=C(O)CCCCCCCCCCCCCCCCCCC(=O)[*:2]].[gGlu].[gGlu].[gGlu].[Sar].[Sar].[Sar].[Sar].[Sar].[Sar].[Sar].[Sar].[Sar].[Sar].[Sar].[Sar].[Sar].[Sar].[Sar].[O=C(CN1CCN(CCN[*:1])CC1)[*:2]].Y.F.[meL].[Nle].[Dab].P.R.G.[am]}$$$$V2.0; SMILES CCCC[C@H](NC(=O)[C@H](CC(C)C)N(C)C(=O)[C@H](Cc1ccccc1)NC(=O)[C@H](Cc1ccc(O)cc1)NC(=O)CN1CCN(CCNC(=O)CN(C)C(=O)CN(C)C(=O)CN(C)C(=O)CN(C)C(=O)CN(C)C(=O)CN(C)C(=O)CN(C)C(=O)CN(C)C(=O)CN(C)C(=O)CN(C)C(=O)CN(C)C(=O)CN(C)C(=O)CN(C)C(=O)CN(C)C(=O)CN(C)C(=O)CC[C@H](NC(=O)CC[C@H](NC(=O)CC[C@H](NC(=O)CCCCCCCCCCCCCCCCCCC(=O)O)C(=O)O)C(=O)O)C(=O)O)CC1)C(=O)N[C@@H](CCN)C(=O)N1CCC[C@H]1C(=O)N[C@@H](CCCNC(=N)N)C(=O)NCC(N)=O) [C20DA-gGlu3-Sar15-AEPipAc-Tyr-Phe-NMeLeu-Nle-Dbu-Pro-Arg-Gly-NH2] |

Target: T1, human neuromedin U receptor 1
Assay: cell-based or functional assay
Remark: another data set of the same source

| EC50 (hNMUR1) buffer | Binder |
| --- | --- |
| 1200 nM | EEEEXXXXXXXXXXXXXYFLXKPRG (HELM PEPTIDE1{[O=C(O)CCCCCCCCCCCCCCCCCCC(=O)[*:2]].[gGlu].[gGlu].[gGlu].[gGlu].[Sar].[Sar].[Sar].[Sar].[Sar].[Sar].[Sar].[Sar].[Sar].[Sar].[Sar].[Sar].[O=C(CN1CCN(CCN[*:1])CC1)[*:2]].Y.F.[meL].[Nle].K.P.R.G.[am]}$$$$V2.0; SMILES CCCC[C@H](NC(=O)[C@H](CC(C)C)N(C)C(=O)[C@H](Cc1ccccc1)NC(=O)[C@H](Cc1ccc(O)cc1)NC(=O)CN1CCN(CCNC(=O)CN(C)C(=O)CN(C)C(=O)CN(C)C(=O)CN(C)C(=O)CN(C)C(=O)CN(C)C(=O)CN(C)C(=O)CN(C)C(=O)CN(C)C(=O)CN(C)C(=O)CN(C)C(=O)CN(C)C(=O)CC[C@H](NC(=O)CC[C@H](NC(=O)CC[C@H](NC(=O)CC[C@H](NC(=O)CCCCCCCCCCCCCCCCCCC(=O)O)C(=O)O)C(=O)O)C(=O)O)C(=O)O)CC1)C(=O)N[C@@H](CCCCN)C(=O)N1CCC[C@H]1C(=O)N[C@@H](CCCNC(=N)N)C(=O)NCC(N)=O) [C20DA-gGlu4-Sar12-AEPipAc-Tyr-Phe-NMeLeu-Nle-Lys-Pro-Arg-Gly-NH2] |
